Bounds are passed on as bounds.

The target of one data set is DNase I (UniProt P00639). Nature of the data set: cleavage_in_vitro. Particulars: 2'-F at all nucleotides; 100 mM NaOAc, 5 mM MgCl2, 37 C, 5 min.
Data set [1] has as its system unnamed basic selection target protein (pI 9, 9 kDa). The experiment in a line: SELEX. To be noted: 2'-F at all nucleotides; 0.89% bound with protein vs 0.48% without after 4 rounds; 20 mM Tris pH 7.4, 150 mM NaCl, 4 mM KCl, 1 mM MgCl2, 1 mM CaCl2, 0.1% Tween-20, 37 C.

DNase I, sequence (P00639 23-282): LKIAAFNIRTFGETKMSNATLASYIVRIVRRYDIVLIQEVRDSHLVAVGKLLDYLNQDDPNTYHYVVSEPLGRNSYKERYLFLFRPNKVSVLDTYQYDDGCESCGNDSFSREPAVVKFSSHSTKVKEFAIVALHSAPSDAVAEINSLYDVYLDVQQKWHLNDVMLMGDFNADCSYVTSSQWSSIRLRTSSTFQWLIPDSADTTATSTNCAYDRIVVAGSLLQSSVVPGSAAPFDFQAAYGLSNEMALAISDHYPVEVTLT

For the sequence “NNNNNNNNNNNNNNNNNNNNNNNNNNNNNNNNNNNNNNNNCACGAGTGAAGTCTGAGCTCC”, the binding signal (fold more stable than DNA) in the data set with DNase I is > 100. Regarding “GTGGAACCGACAGTGGTACGTGNNNNNNNNNNNNNNNNNNNNNNNNNNNNNNNNNNNNNNNNCACGAGTGAAGTCTGAGCTCC [BSA-1C FNA pool, selection round 4]”, the binding signal (fold over no-protein control) in data set [1] was 1.85.

For the origin of these results see patent US20110027794.
